Positions count from the first letter of the chain named.
Key:
Assay in all cases: UV crosslinking
[1] = target: T1, SisCsx1-M6 (Sulfolobus islandicus Rey15A, UniProt F0NE21 1-454, H155L)
T1 sequence: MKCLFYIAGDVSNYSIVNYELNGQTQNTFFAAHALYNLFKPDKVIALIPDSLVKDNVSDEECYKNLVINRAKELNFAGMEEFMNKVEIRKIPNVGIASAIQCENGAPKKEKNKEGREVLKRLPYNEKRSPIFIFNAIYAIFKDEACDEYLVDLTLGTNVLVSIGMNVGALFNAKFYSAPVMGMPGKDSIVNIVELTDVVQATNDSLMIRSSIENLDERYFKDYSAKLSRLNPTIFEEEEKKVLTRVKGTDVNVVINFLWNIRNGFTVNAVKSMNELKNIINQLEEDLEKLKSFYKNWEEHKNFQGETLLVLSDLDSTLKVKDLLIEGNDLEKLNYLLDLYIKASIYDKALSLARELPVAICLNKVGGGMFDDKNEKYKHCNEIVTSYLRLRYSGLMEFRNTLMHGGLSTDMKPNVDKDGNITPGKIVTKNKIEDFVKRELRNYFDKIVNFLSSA

[2] = target: T2, SisCsx1-M2 (Sulfolobus islandicus Rey15A, UniProt F0NE21 1-454, G95L;A97L;A99L)
T2 sequence: T1 sequence with G95L, A97L, A99L, L155H

[3] = target: T3, SisCsx1-M3 (Sulfolobus islandicus Rey15A, UniProt F0NE21 1-454, D50L;S51L)
T3 sequence: T1 sequence with D50L, S51L, L155H

Measured: binding result

CGCAAAAAAA (ssRNA) [S3A7]
no binding: [1] | [2] | [3]

From paper PMC5737841
